Some targets named below: HIV-1 Du172 Env (HIV-1); HIV-1 TR0.11 Env (HIV-1); HIV-1 CAP45 Env (HIV-1); HIV-1 ZM249 Env (HIV-1); HIV-1 DU156 Env (HIV-1); HIV-1 PVO.4 Env (HIV-1); HIV-1 CAAN Env (HIV-1); HIV-1 ZM214 Env (HIV-1); HIV-1 DU422 Env (HIV-1); HIV-1 ADA Env (HIV-1); HIV-1 ZM233 Env (HIV-1); HIV-1 AC10 Env (HIV-1).
Common to all, as to experiment: cell-based or functional assay
Experiment [1] has as its target HIV-1 JR-CSF Env (wild-type) (HIV-1) (UniProt P20871).
Experiment [2] deals with HIV-1 REJ04541 Env (HIV-1).
Experiment [3] deals with HIV-1 JR-CSF Env Y318A (HIV-1) (UniProt P20871).
Experiment [4] has as its target HIV-1 92RW020 Env (HIV-1).
Experiment [5] addresses HIV-1 THRO.18 Env (HIV-1).
The target of experiment [6] is HIV-1 JR-CSF Env I309A (HIV-1) (UniProt P20871).
Experiment [7] concerns the target MuLV envelope (control pseudovirus).
Experiment [8] deals with HIV-1 JR-FL Env E168K (HIV-1).

Numbering of substitutions follows the chain as printed.

B1: 1503_H05 (PG16) (TCN-119) (antibody, V domains shown)
VH: QEKLVESGGGVVQPGGSLRLSCLASGFTFHKYGMHWVRQAPGKGLEWVALISDDGMRKYHSDSMWGRVTISRDNSKNTLYLQFSSLKVEDTAMFFCAREAGGPIWHDDVKYYDFNDGYYNYHYMDVWGKGTIVTVSS
VL: QSALTQPASVSGSPGQTITISCNGTRSDVGGFDSVSWYQQSPGKAPKVMVFDVSHRPSGISNRFSGSKSGNTASLTISGLHIEDEGDYFCSSLTDRSHRIFGGGTKVTVLG
As for B1, the IC50, TZM-bl pseudovirus neutralization is less than 0.01 µg/mL in the experiment with HIV-1 Du172 Env (HIV-1); 0.001 µg/mL in experiment [1]; 4.3 µg/mL in the experiment with HIV-1 TR0.11 Env (HIV-1); less than 0.01 µg/mL in the experiment with HIV-1 CAP45 Env (HIV-1); 0.22 µg/mL in experiment [2]; greater than 1 µg/mL in [3]. For the same molecule, the IC50, TZM-bl pseudovirus neutralization is 0.02 µg/mL in [4]; less than 0.01 µg/mL with HIV-1 ZM249 Env (HIV-1); less than 0.01 µg/mL with HIV-1 DU156 Env (HIV-1); 11 µg/mL with HIV-1 PVO.4 Env (HIV-1); 4.12 µg/mL in [5]; greater than 1 µg/mL in [6]. Moreover, the IC50, TZM-bl pseudovirus neutralization is 13.5 µg/mL in the experiment with HIV-1 CAAN Env (HIV-1); greater than 25 µg/mL with HIV-1 ZM214 Env (HIV-1); 0.71 µg/mL in the experiment with HIV-1 DU422 Env (HIV-1); 0.003 µg/mL with HIV-1 ADA Env (HIV-1); less than 0.01 µg/mL in the experiment with HIV-1 ZM233 Env (HIV-1); greater than 25 µg/mL in experiment [7]. The IC50, TZM-bl pseudovirus neutralization in experiment [8] is 0.002 µg/mL; with HIV-1 AC10 Env (HIV-1) it was less than 0.01 µg/mL.

B2: 1469_M23 (PG16) (TCN-118) (antibody, V domains shown)
VH: B1 VH with I132T
VL: B1 VL with K44R, V107L
Regarding B2, the IC50, TZM-bl pseudovirus neutralization with HIV-1 Du172 Env (HIV-1) was less than 0.01 µg/mL; in experiment [1], 0.002 µg/mL; with HIV-1 TR0.11 Env (HIV-1), 7.52 µg/mL; with HIV-1 CAP45 Env (HIV-1) it was less than 0.01 µg/mL; in experiment [2], 0.39 µg/mL; in experiment [3], greater than 1 µg/mL. For the same molecule, the IC50, TZM-bl pseudovirus neutralization is 0.05 µg/mL in [4]; less than 0.01 µg/mL with HIV-1 ZM249 Env (HIV-1); less than 0.01 µg/mL in the experiment with HIV-1 DU156 Env (HIV-1); 21.2 µg/mL with HIV-1 PVO.4 Env (HIV-1); 7.01 µg/mL in [5]; greater than 1 µg/mL in [6]. Moreover, the IC50, TZM-bl pseudovirus neutralization with HIV-1 CAAN Env (HIV-1) was 17.7 µg/mL; in the experiment with HIV-1 ZM214 Env (HIV-1) it was greater than 25 µg/mL; with HIV-1 DU422 Env (HIV-1) it was 0.97 µg/mL; with HIV-1 ADA Env (HIV-1), 0.005 µg/mL; in the experiment with HIV-1 ZM233 Env (HIV-1), less than 0.01 µg/mL; in experiment [7], greater than 25 µg/mL. The IC50, TZM-bl pseudovirus neutralization is 0.005 µg/mL in [8] and less than 0.01 µg/mL in the experiment with HIV-1 AC10 Env (HIV-1).

B3: 1489_I13 (PG16) (TCN-120) (antibody, V domains shown)
VH: B1 VH with K3Q, V5L, D62N, I132T
VL: B1 VL with R26S
Take B3: the IC50, TZM-bl pseudovirus neutralization with HIV-1 Du172 Env (HIV-1) is less than 0.01 µg/mL; in [1], 0.002 µg/mL; with HIV-1 TR0.11 Env (HIV-1), 10.9 µg/mL; with HIV-1 CAP45 Env (HIV-1) it was less than 0.01 µg/mL; in experiment [2], 0.34 µg/mL; in [3], greater than 1 µg/mL. Moreover, the IC50, TZM-bl pseudovirus neutralization is 0.03 µg/mL in experiment [4]; less than 0.01 µg/mL with HIV-1 ZM249 Env (HIV-1); less than 0.01 µg/mL with HIV-1 DU156 Env (HIV-1); 20.6 µg/mL with HIV-1 PVO.4 Env (HIV-1); 7.41 µg/mL in [5]; greater than 1 µg/mL in [6]. Moreover, the IC50, TZM-bl pseudovirus neutralization with HIV-1 CAAN Env (HIV-1) was 24.9 µg/mL; in the experiment with HIV-1 ZM214 Env (HIV-1), greater than 25 µg/mL; with HIV-1 DU422 Env (HIV-1), 1.87 µg/mL; with HIV-1 ADA Env (HIV-1), 0.008 µg/mL; with HIV-1 ZM233 Env (HIV-1), less than 0.01 µg/mL; in [7], greater than 25 µg/mL. The IC50, TZM-bl pseudovirus neutralization in experiment [8] is 0.005 µg/mL; in the experiment with HIV-1 AC10 Env (HIV-1) it was less than 0.01 µg/mL.

B4: 1456_A12 (PG16) (TCN-117) (antibody, V domains shown)
VH: B1 VH with Q1H, K3Q, S7A, K87R, I132K
VL: B1 VL with R26S, S27R, I60M, V107L
With B4, the IC50, TZM-bl pseudovirus neutralization with HIV-1 Du172 Env (HIV-1) was less than 0.01 µg/mL; in experiment [1] it was 0.001 µg/mL; in the experiment with HIV-1 TR0.11 Env (HIV-1) it was 3.05 µg/mL; with HIV-1 CAP45 Env (HIV-1) it was less than 0.01 µg/mL; in experiment [2] it was less than 0.01 µg/mL; in experiment [3], greater than 1 µg/mL. In addition, the IC50, TZM-bl pseudovirus neutralization is 0.05 µg/mL in experiment [4]; less than 0.01 µg/mL in the experiment with HIV-1 ZM249 Env (HIV-1); less than 0.01 µg/mL with HIV-1 DU156 Env (HIV-1); 10.4 µg/mL with HIV-1 PVO.4 Env (HIV-1); 2.08 µg/mL in [5]; greater than 1 µg/mL in [6]. Also, the IC50, TZM-bl pseudovirus neutralization was 10.6 µg/mL with HIV-1 CAAN Env (HIV-1); greater than 25 µg/mL with HIV-1 ZM214 Env (HIV-1); 0.36 µg/mL with HIV-1 DU422 Env (HIV-1); 0.005 µg/mL with HIV-1 ADA Env (HIV-1); less than 0.01 µg/mL with HIV-1 ZM233 Env (HIV-1); greater than 25 µg/mL in experiment [7]. The IC50, TZM-bl pseudovirus neutralization is 0.003 µg/mL in [8] and less than 0.01 µg/mL with HIV-1 AC10 Env (HIV-1).

Source of the values: patent publication US20160264649A1.
